The values below are quoted from earlier work in publication PMC11962798.

Broadly, the Kd is a measure of binding affinity in units of concentration.

The target of this series is Spike protein RBD (SARS-CoV-2) (UniProt P0DTC2).

In the case of Bamlanivimab, the Kd was 1.5 nM.
